Reference: publication PMC6888877, “Deconstructing and repurposing the light-regulated interplay between Arabidopsis phytochromes and interacting factors” (Communications Biology, 2019)

What was measured:
Experiment in all cases: SEC; 50 µM AtPhyB PCM + 10 µM AtPIF-EYFP (5:1), illuminated with red light (650 nm, 2 min; results say 640 nm), Pfr state; Superdex 200 Increase 10/300 GL; 67 mM sodium phosphate pH 8.0, 200 mM NaCl
Details in all cases: both partners purified
[1] = target: T1, P3 (AtPIF3 1-100 without the N-terminal region preceding APB.A)-EYFP (Arabidopsis thaliana)
T1 chain: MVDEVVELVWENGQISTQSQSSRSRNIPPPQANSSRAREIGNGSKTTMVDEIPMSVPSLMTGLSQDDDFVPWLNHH

P6.AA-EYFP = target: T2, P6.AA-EYFP (Arabidopsis thaliana)
T2 chain: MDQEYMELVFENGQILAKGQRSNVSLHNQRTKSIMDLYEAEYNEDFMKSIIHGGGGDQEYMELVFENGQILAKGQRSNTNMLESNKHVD

P3.A-EYFP = target: T3, P3.A-EYFP (Arabidopsis thaliana)
T3 chain: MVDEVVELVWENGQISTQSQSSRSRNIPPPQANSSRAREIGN

P3.fus-EYFP = target: T4, P3.fus-EYFP (Arabidopsis thaliana)
T4 chain: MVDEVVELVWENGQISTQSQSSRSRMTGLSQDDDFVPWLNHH

P6.AAfus-EYFP = target: T5, P6.AAfus-EYFP (Arabidopsis thaliana)
T5 chain: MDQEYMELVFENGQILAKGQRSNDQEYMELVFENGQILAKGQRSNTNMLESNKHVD

[2] = target: T6, AtPIF6 (1-100)-EYFP, P6.100 (Arabidopsis thaliana, UniProt Q8L5W7 1-100)
T6 construct: A. thaliana PIF6, residues 1-100; His6-SUMO only on the pET-19b construct that was purified; the pET-28c construct used in lysate has the same AtPIF part, linker and EYFP; also called P6.100-EYFP; source: E. coli BL21(DE3): in crude lysate (pET-28c), and purified (pET-19b; IMAC, SENP2 cleavage, second IMAC, optional anion exchange); not shown: His6-SUMO, N-terminal, cleaved
T6 sequence (looked up): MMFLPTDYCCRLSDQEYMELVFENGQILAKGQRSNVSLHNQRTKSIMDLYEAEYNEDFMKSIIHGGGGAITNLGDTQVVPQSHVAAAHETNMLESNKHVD

[3] = target: T7, AtPIF3 (1-100)-EYFP, P3.100 (Arabidopsis thaliana, UniProt O80536 1-100)
T7 construct: A. thaliana PIF3, residues 1-100; His6-SUMO only on the pET-19b construct that was purified; the pET-28c construct used in lysate has the same AtPIF part, linker and EYFP; also called P3.100-EYFP; source: E. coli BL21(DE3): in crude lysate (pET-28c), and purified (pET-19b; IMAC, SENP2 cleavage, second IMAC, optional anion exchange); not shown: His6-SUMO, N-terminal, cleaved
T7 sequence (looked up): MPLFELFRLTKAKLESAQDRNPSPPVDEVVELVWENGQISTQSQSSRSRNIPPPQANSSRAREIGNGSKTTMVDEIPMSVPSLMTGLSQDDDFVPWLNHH

P6.A-EYFP = target: T8, P6.A-EYFP (Arabidopsis thaliana)
T8 chain: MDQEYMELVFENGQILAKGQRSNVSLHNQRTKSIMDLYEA

[4] = target: T9, P6 (AtPIF6 1-100 without the N-terminal region preceding APB.A)-EYFP (Arabidopsis thaliana)
T9 chain: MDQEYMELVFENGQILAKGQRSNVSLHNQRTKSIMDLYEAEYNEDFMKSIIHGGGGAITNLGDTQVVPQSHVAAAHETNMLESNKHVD

P3.AA-EYFP = target: T10, P3.AA-EYFP (Arabidopsis thaliana)
T10 chain: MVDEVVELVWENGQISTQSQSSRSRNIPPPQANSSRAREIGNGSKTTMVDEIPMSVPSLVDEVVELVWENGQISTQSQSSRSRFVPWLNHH

P6.As-EYFP = target: T11, P6.As-EYFP (Arabidopsis thaliana)
T11 chain: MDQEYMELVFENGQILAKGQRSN

Measured: stoichiometry N

B1: Arabidopsis thaliana phytochrome B photosensory core module (AtPhyB PCM) (domain or fragment, UniProt P14713 1-651, looked up)
chain: MVSGVGGSGGGRGGGRGGEEEPSSSHTPNNRRGGEQAQSSGTKSLRPRSNTESMSKAIQQYTVDARLHAVFEQSGESGKSFDYSQSLKTTTYGSSVPEQQITAYLSRIQRGGYIQPFGCMIAVDESSFRIIGYSENAREMLGIMPQSVPTLEKPEILAMGTDVRSLFTSSSSILLERAFVAREITLLNPVWIHSKNTGKPFYAILHRIDVGVVIDLEPARTEDPALSIAGAVQSQKLAVRAISQLQALPGGDIKLLCDTVVESVRDLTGYDRVMVYKFHEDEHGEVVAESKRDDLEPYIGLHYPATDIPQASRFLFKQNRVRMIVDCNATPVLVVQDDRLTQSMCLVGSTLRAPHGCHSQYMANMGSIASLAMAVIINGNEDDGSNVASGRSSMRLWGLVVCHHTSSRCIPFPLRYACEFLMQAFGLQLNMELQLALQMSEKRVLRTQTLLCDMLLRDSPAGIVTQSPSIMDLVKCDGAAFLYHGKYYPLGVAPSEVQIKDVVEWLLANHADSTGLSTDSLGDAGYPGAAALGDAVCGMAVAYITKRDFLFWFRSHTAKEIKWGGAKHHPEDKDDGQRMHPRSSFQAFLEVVKSRSQPWETAEMDAIHSLQLILRDSFKESEAAMNSKVVDGVVQPCRDMAGEQGIDELGA
modifications: covalently incorporated bilin chromophore (PCB; co-expressed Synechocystis sp. heme oxygenase 1 and pcyA)
notes: A. thaliana phytochrome B, photosensory core module (PAS-GAF-PHY with N-terminal extension), residues 1-651; Pr state (far-red light or dark) and Pfr state (red light; Pfr/Pr about 0.56/0.44) are told apart by the assays; In the cell experiments other constructs were used (PCM-VP16; PCM 1-650 with CAAX); source: E. coli BL21(DE3), plasmid pDG282, purified (Ni-NTA IMAC, anion exchange)
1: [1] | P6.AA-EYFP | P3.A-EYFP | P3.fus-EYFP | P6.AAfus-EYFP | [2] | [3] | P6.A-EYFP | [4] | P3.AA-EYFP | P6.As-EYFP
